# Experiment: soluble on expression in E. coli; label from the status in PepcDB or PDB records
row,Sequence,soluble on expression in E. coli
1,MLASIPLKDIQIQDRFWKERLDLVRKEIIPYQWEAMNDRVPNAEPSHCIENYRIAAGQAQGSFYGEVFQDSDLAKWLEAVAYVLSFQPDPKLEKLADEAIELVCAAQQSDGYLNTFFTIKEPDQRWRNLREGHELYCAGHMMEAAVAYFEATGKRRLLDAMMRFADLICNTFGPEEGKIHAYPGHEEVELALFRMYRATGVRRYLELSAYFINCRGTGENYFRKENDRPGYLPIWGSMDTNSDMSYYQAHQPVREQKQAAGHAVRAMYLYSAMADLAGELKDEGLLNACKTLWNNVTERQMYVTGGVGASGILERFTTDYDLSNEMAYAESCASIGLMLFGLRMNRVTRQAQYFDPVERALYNTVLASVALDGKSFFYVNPLEVWPKACMPYTSKEHVKPVRQPWFSCACCPPNVARTFASLGQYIWAQDSQRVYLNLFISSTVKAKNGAILKLETEFPMGNVLKITSDQVLELAVRIPGYGKNFRANVSYRKENGYGVFELEAGKELEIQFDAPACFIRANPEVRACSGKVCIQRGPVVYCLEEIDNGSNLSALSVDTAVSPGERESDIPGGLMITASGKRRRPWADDKLYGEIPSQYEETVLQAVPYAFWGNREKGEMTVWIRESLEHHHHHH,not soluble
2,MRRPPIVRCLFFLNDTIVLELEKTRVISERSNEEVIVVIRKTVKGTDGREYTFVAKEGTFEKLTGLGTTIRGHIPGTDSPFYGILEDGEEGLRAWIMTFRVVNRVPIDSETEEELVRLFLPLVERRRIDRSILLYVE,not soluble
3,MCLILTAWHAHPAYALVVAANRDEFYDRPAAPLAWWSDAPHVLAGRDLAQVVGHAGTWMGMTRDGRFAALTNYRAPSERRPDARSRGELVANFLAAEDASIPAYLDQLKARNGVYNGYNLLTATRDELWWTSNRAEAPRQLAPGVYGLSNALLDTPWFKVRHRVAAFAEALAADTGRHGNAIDVARYLDLLAETREAPLGALPATGVAPEWEKLLSAAFIRSPRYGTRASTVLRIRHDGCFDVTERRFDAQGQIGETRYLGVLDAVTQADTPLEHHHHHH,not soluble
4,MAHHHHHHSLMLVVRPISMADYEALHTCAVESGHGFTSLPVDQELLTNRITHSEYSFSKPNVTMPGDEGYLMVGVDTETGQVAGTTGIEASIGWDVPFYSYHISTIVHSSPKLGVNNVVKLLTFGNNYTGCSEICTLFLRPQYRQGLNGRLMSKCRFLMMAEHSHRFSKTIFAEMRGVSDADGNSPFWKWLQEHFFSIDFTLADYLTGIGKKGFIADLMPKLPIYVNLLSKEAQAVIGQVHENTRPALVLLEKEGFTCRNYVDIFDAGPTVECELNNIESVRHSVRAIVEVAEHSSSQNFIMCNTSFENFRATAAKAAYSQEDNAVIISPKVAAALEVSTGDYLRILAQEG,not soluble
5,MSLNDSILEPKHRGNVREIAAIDLGSNSFHMIVARIVNGSIQVLSRLKQKVKLAEGLDENAVLNQEAITRGVNCLALFAERLQGFPMENVNVVGTYTLRRAVNNDEFLRQAAKVFPYPINIISGQTEAKTIYAGVCHTQPEKGRKLVIDIGGGSTEMIIGDDFTPLMAESRHMGCVSFATQFFTDGIISPENFQRARQSAVNKIEDLGLEYRKLGWQSVLGSSGTIKTVAQVIATNLDPNGTITAERLNALIEQTLQAKHFTELNINGLNQDRVDVFVPGLAILSAVFDVFHIQQMRYSDGALREGVIYSLEKNFQVADIRASTAEGHHHHHH,soluble
6,SLERSVNGKIQKADIFSVPVSFNANEVTHVDTPQEALAASLNKFGEVNLEYMENLSETGRQELLTQLENRIFYNPMMKNYEIKDRFIAGNVVAKVEWIENYLKDYPDDDASKKSLEALQKAIPEPISFELLDFNLGERWIPVSVYEEFAGYLFEAKAHIHYTESIDEFSVSFEETNANITDRYYVKGEKRGYYGNDLLKHALHNTVPDITKTVQDEEGNDIKVRDAEAIQLADAKINEIRSAFTGWLNEQLPEFKQHLADMYNRKFNCYVRPDYDGSLQSFPFLDLKGLGIPSLYDSQ,not soluble
7,MAHHHHHHMSTSVVARHPQMRPSRKRQAQRQHPRQQRSVAHKAQRAPSSGHGASSVEHLPRDAVVHVALRQQHRPAGQAHSRIKRHRVVLRRQKVVPHKRHGGARHTHSPTHRHRVLAQQEVAVNKRHHGAAAGRNAALHRHAQPQRRLHQQSVHVQRTARRQRHAANHQHANSVAEHSRHLRSRNCQHAPRQIHVVHHEARRRVAKVVGAAVRNTRLCYQHRVHHSDARARRKPVRHQHTAARTRLKTADQHINALASRRVGPPPNNVQARSAQKRAVRQRHVAHAP,not soluble
8,MNKIAIQKPNIPENLQTADFHDAVTQDDVISMHLFEDCTICGEDIERLCVEKTVFRNVVFIDVSFRHIELTDVIFEKCDLSNADFSGAVIHRTSVKQSKMVGMNVAEATLRNVSFEECHGHFSSFSYSNMKQVRFDHCALMQSECSDTVLQQTHFDGCELEGASFTGTSLQNMDISTCRFEQLHVSLDKLKGCKIAPEHAIAFARALGAVIVLEHHHHHH,soluble
9,SPIIPEAARALYYNDGMFEGDIKLRAGRQPARVGAAILGDEYLWSGGVIPYTFAGVSGADQSAILSGMQELEEKTCIRFVPRTTESDYVEIFTSGSGCWSYVGRISGAQQVSLQANGCVYHGTILHALMHAIGFYHEHTRMDRDNYVTINYQNVDPSMTSNFDIDTYSRYVGEDYQYYSIMHYGKYSFSIQWGVLETIVPLQNGIDLTDPYDKAHMLQTDANQINNLYTNECSLR,soluble
10,MQYLEKKEIKEIQLALLDYIDETCKKHDIPYFLSYGTMLGAIRHKGMIPWDDDIDISLYREDYERLLKIIEEENHPRYKVLSYDTSSWYFHNFASILDTSTVIEDHVKYKRHDTSLFIDVFPIDRFTDLSIVDKSYKYVALRQLAYIKKSRAVHGDSKLKDFLRLCSWYALRFVNPRYFYKKIDQLVKNAVTNTPQYEGGVGIGKEGMKEIFPVDTFKELILTEFEGRMLPVPKKYDQFLTQMYGDYMTPPSKEMQEWYSHSIKAYRKNLEHHHHHH,soluble
11,MLLAGLLASVEHGLNRVLRLDSTALPRLAALEGKVIEIDCRQPALQVFILPDEEGLMLAAHWQGEVDCRLRAPAGSLAQLALVKDKTAVLHSPQVELHGDSAVLLDLFGVLQDLELDWEHELQRWLGPVATAMLAGHIRLRARWTRQGLARFSQNLSEYLAEESRTLVGKREAEAAFSELDALKLDTERLEARLKRLSRSLDTSDNA,not soluble
12,MGSSHHHHHHSSGLVPRGSHMSKFSYLQNGKASTNGVPHANGHHQQHQNGHSNGVARNGGTATDTLPVAYQQKAATSGPFHMPRTEHVGYTYDTLQEIATYLLERTELRPKVGIICGSGLGTLAEQLTDVDSFDYETIPHFPVSTVAGHVGRLVFGYLAGVPVMCMQGRFHHYEGYPLAKCAMPVRVMHLIGCTHLIATNAAGGANPKYRVGDIMLIKDHINLMGFAGNNPLQGPNDERFGPRFFGMANTYDPKLNQQAKVIARQIGIENELREGVYTCLGGPNFETVAEVKMLSMLGVDAIGMSTVHEIITARHCGMTCFAFSLITNMCTMSYEEEEEHCHDSIVGVGKNREKTLGEFVSRIVKHIHYEAKK,soluble
13,MITSTTTDYKNFFKHSAHPANAEQYFRELLDKRERRYEDLCRNIISDMNQYGLSVVDDFLGMETGLKILNEVRSMYNAGAFQDGQVVTNQTPDAPAVRGDKIRGDKIKWVGGNEPGCSNVWYLTNQIDSVVYRVNTMKDNGILGNYHIRERTRAMVACYPGSGTHYVMHVDNPQKDGRVITAIYYLNINWDARESGGILRIRPTPGTTVADIEPKFDRLIFFWSDIRNPHEVQPAHRTRYAITVWYFDAKEREEALIRAKLENSKTNNLAAQAQAQQAEPDSTTTPPAAPASSASSLPVSMSTGTGALNANVSSNSCATSSEICT,not soluble
14,MTSSLSLHSSFVPSFADLSDRGLISKNSPTSVSISKVPTWEKKQISNRNSFKLNCVMEKSVDGQTHSTVNNTTDSLNTMNIKEEASVSTLLVNLDNKFDPFDAMSTPLYQTATFKQPSAIENGPYDYTRSGNPTRDALESLLAKLDKADRAFCFTSGMAALSAVTHLIKNGEEIVAGDDVYGGSDRLLSQVVPRSGVVVKRVNTTKLDEVAAAIGPQTKLVWLESPTNPRQQISDIRKISEMAHAQGALVLVDNSIMSPVLSRPLELGADIVMHSATKFIAGHSDVMAGVLAVKGEKLAKEVYFLQNSEGSGLAPFDCWLCLRGIKTMALRIEKQQENARKIAMYLSSHPRVKKVYYAGLPDHPGHHLHFSQAKGAGSVFSFITGSVALSKHLVETTKYFSIAVSFGSVKSLISMPCFMSHASIPAEVREARGLTEDLVRISAGIEDVDDLISDLDIAFKTFPL,soluble
15,MSLNKPVLPKPAPSISSLSLKLPKADRSIETYRLAASRTFPARLEGPLNRIAFSAVHTVADPFADNDPWLSVAVDWDKTIAFREHVWDLGLGVAEAMDTAQRGMGLDWPTSLELITRSVAAAKRRNALVFSGAGTDHLAVEDARTVDDVIRAYEEQISAVEKVGGRIILMASRALAKLGRNADDYAKVYDRVLSQVREPVIIHWLGDMFDPALTGYWGTKDLDKAMDVAVAVINANAAKVDGVKVSLLDKQREIDMRRRLDKRIRMYTGDDFNYAELIAGDSQGFSHALLGIFDAIAPAASYALSRLAAGDEAGFHDVLGPTVPLSRHIFKAPTRFYKTGVVFMAYLNGHQDHFTMVGGQESARSMLHLAELFRLADQAGLLANPELATRRMTTVLASHGIESEGHHHHHH,not soluble
16,MGSDKIHHHHHHMDMTFKLQVFEGPLDLLLYLIEKNKVNIYDIPIVEITAQYMEYVNQMKKDNLDTLSEFLVMAATLLDIKSKMLLPKKEEEEQEQEDPRAELVQQLLEYKMYKCMANELKDRQLDAGKVWYKKKDIPDEVLAYEEPVNLEELVGDIRLSDLNRIFQSIMKRQEEKIDKVRSKFGKIEKEEVSLEEKMEYLTDYAASHKHFSFRGMLTASSSKVEVIVTFLAILELMKTGKLTIVQEHIFDDIRIESRIAA,not soluble
17,MGSDKIHHHHHHWLDLAPSTQVDTETSINVLSDIEFTLNGIYSTMQSSDAYSGRLVYYGDVTGDDMQAVSSTKRTGNYYRFNFTKDNGPSSHWSYLYSIIQNCNLILMNVDKLSIDEDETEYKNDLKGQALAIRGMALFDLTRIFGYPYLKDNGASLGVPIVKELSTIDSKPARNTVAECYTEIISDLKNSTELLSGDFNKGKVNRWAAMTLLSRVYLYKGEYNEALTMAENAIKGAEKEGYALWTNEEYPTAWGNDASASNPGEILFEIVNLTTDSPGKESMGYLNSYNGYDDMCITCSFYQLLKKDPKDVRLKILSFDKKYYAYVNKYQPQQGENITDANIPLIRLSEAYLNAAEAAVQTGDNAKAVKYLNSIVQRANPENSVEGKTLTLENVLDERRKELVAEGHRMYDVIRNGMTVKRIDVKDSDINKTKHNTAYMEYDWNFHKILLPIPKKEMDANPNMKQNPGYVD,not soluble
18,NQVEKSLISSYEQSLNQRIDNLSYYIEQEYKSDNDSTVIKDDVSRILNDFTKSDEVREISFVDKSYEVVGSSKPYGEEVAGKQTTDLIFKRIFSTKQSYLRKYYDPKSKIRVLISAKPVMTENQEVVGAIYVVASMEDVFNQMKTINT,not soluble
19,MSLSVLNAKECVSPITRSVKYHQQSAEIRALQLQSYKMAKMALDNNLKLVKDKKPAVILDLDETVLNTFDYAGYLIKNCIKYTPETWDKFEKEGSLTLIPGALDFLEYANSKGVKIFYISNRTQKNKAFTLKTLKSFKLPQVSEESVLLKEKGKPKAVRRELVAKDYAIVLQVGDTLHDFDAIFAKDAKNSQEQRAKVLQNAQKFGTEWIILPNSLYGTWEDEPIKAWQNKKEGHHHHHH,soluble

# — the DeepSol protein solubility set
